The results in this text go back to publication PMC2922993 (Nature chemical biology, 2010).

Non-standard residues stand in square brackets, D forms with d. No end group written: not given here. Lys(Me3) = C[N+](C)(C)CCCC[C@H](N)C(=O)O; Arg(Me2s) = CN=C(NC)NCCC[C@H](N)C(=O)O

In test [1] the target is T1, inhibitor of growth 2 (ING2) PHD finger.
T1 sequence (Q9H160 whole entry, species assumed, looked up): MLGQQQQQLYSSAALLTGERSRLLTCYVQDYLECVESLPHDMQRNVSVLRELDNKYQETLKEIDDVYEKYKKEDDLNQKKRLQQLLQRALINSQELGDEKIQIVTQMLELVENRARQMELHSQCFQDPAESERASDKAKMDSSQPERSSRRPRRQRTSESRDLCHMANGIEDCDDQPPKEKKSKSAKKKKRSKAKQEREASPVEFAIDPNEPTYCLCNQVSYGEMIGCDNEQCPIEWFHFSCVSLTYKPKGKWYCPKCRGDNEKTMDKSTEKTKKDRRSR
Briefly: ITC.

Test [2] addresses BRAF-HDAC Complex 80 (BHC80)-PHD finger (UniProt Q96BD5 486-543). Briefly: ITC. On the technique in general: ITC needs no label: the signal is the heat of the interaction.

BRAF-HDAC Complex 80 (BHC80)-PHD finger, sequence (Q96BD5 486-543, one chain of several): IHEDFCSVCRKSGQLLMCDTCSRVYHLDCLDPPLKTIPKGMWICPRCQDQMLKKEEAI

As to A[Arg(Me2s)]T[Lys(Me3)]QTARKSTG [H3 peptide bearing K4me3 and R2me2s marks], in test [1], the affinity, expressed as Kd, was 17.3 µM.

Consider ART[Lys(Me3)]QTARKSTG [H3K4me3 peptide (ITC)], for which the Kd – broadly, a measure of binding affinity in units of concentration – in test [1] stood at 0.98 µM. For the molecule A[Arg(Me2s)]TKQTARKSTG [H3R2me2s- modified peptide], the Kd in test [2] turned out to be 57.2 µM.
